Experimental data: US20220380471A1
Substitutions are numbered along the chain they refer to.

T1: mouse B7H3-His (mouse) (UniProt Q8VE98)
T1 sequence (looked up): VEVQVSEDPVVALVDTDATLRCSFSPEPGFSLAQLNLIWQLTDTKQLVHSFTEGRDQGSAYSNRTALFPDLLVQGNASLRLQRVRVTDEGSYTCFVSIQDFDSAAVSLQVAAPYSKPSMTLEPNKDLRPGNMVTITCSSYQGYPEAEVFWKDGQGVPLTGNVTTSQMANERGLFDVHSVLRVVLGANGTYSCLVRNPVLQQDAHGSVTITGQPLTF

T2: rat B7H3-His (rat) (UniProt Q7TPB4)
T2 sequence (looked up): T1 sequence (looked up) with A33R, S62A, N131D, V156L, L214M

B1: RWC4 (VHH)
VHH: EVQLVESGGGSVQAGGSLRLSCVASEDSTSAMCMGWFRQAPGKEREGVACINPTGEVTWYGDSVKGRFTISRDTVKKIVYLQMNSLKPEDTAMYYCAARVTYGGDWSTDTDYEYWGQGTQVTVSS
B2: RWB12 (VHH)
VHH: QVQLVESGGGSVQVGGSLRLSCAASGFTYNSYSVGWFRQAPGKEREGVAAINSGGSSTYYAASVKGRFTISRDNAKNTVYLQMNSLKPEDTAMYYCAARSPSPLTFQTRTLREDSYNYWGQGTQVTVSS

Tests used:
mouse B7H3-His (mouse) [1] = molecular target: T1, mouse B7H3-His (mouse); experiment: ELISA; row Mouse-1 (msB7H3); well 1 of 3
rat B7H3-His (rat) [2] = molecular target: T2, rat B7H3-His (rat); experiment: ELISA; row Rat; well 3 of 3
rat B7H3-His (rat) [3] = molecular target: T2, rat B7H3-His (rat); experiment: phage ELISA, cross-species
mouse B7H3-His (mouse) [4] = molecular target: T1, mouse B7H3-His (mouse); experiment: phage ELISA, cross-species
mouse B7H3-His (mouse) [5] = molecular target: T1, mouse B7H3-His (mouse); experiment: ELISA; row Mouse-1 (msB7H3); well 2 of 3
rat B7H3-His (rat) [6] = molecular target: T2, rat B7H3-His (rat); experiment: ELISA; row Rat; well 1 of 3
rat B7H3-His (rat) [7] = molecular target: T2, rat B7H3-His (rat); experiment: ELISA, purified VHH
mouse B7H3-His (mouse) [8] = molecular target: T1, mouse B7H3-His (mouse); experiment: ELISA; row Mouse-2 (mB7H3); well 3 of 3
mouse B7H3-His (mouse) [9] = molecular target: T1, mouse B7H3-His (mouse); experiment: ELISA; row Mouse-1 (msB7H3); well 3 of 3
rat B7H3-His (rat) [10] = molecular target: T2, rat B7H3-His (rat); experiment: ELISA; row Rat; well 2 of 3
mouse B7H3-His (mouse) [11] = molecular target: T1, mouse B7H3-His (mouse); experiment: ELISA; row Mouse-2 (mB7H3); well 2 of 3
mouse B7H3-His (mouse) [12] = molecular target: T1, mouse B7H3-His (mouse); experiment: ELISA; row Mouse-2 (mB7H3); well 1 of 3

Row | Binder | ELISA reading (name not given) (mouse B7H3-His (mouse) [1]) | ELISA reading (name not given) (rat B7H3-His (rat) [2]) | ELISA signal (rat B7H3-His (rat) [3]) | ELISA signal (mouse B7H3-His (mouse) [4]) | ELISA reading (name not given) (mouse B7H3-His (mouse) [5]) | ELISA reading (name not given) (rat B7H3-His (rat) [6]) | ELISA signal (rat B7H3-His (rat) [7]) | ELISA reading (name not given) (mouse B7H3-His (mouse) [8]) | ELISA reading (name not given) (mouse B7H3-His (mouse) [9]) | ELISA reading (name not given) (rat B7H3-His (rat) [10]) | ELISA reading (name not given) (mouse B7H3-His (mouse) [11]) | ELISA reading (name not given) (mouse B7H3-His (mouse) [12])
1 | B1 | 0.0616 | 0.0685 | 0.797 | 0.366 | 0.0533 | 0.0683 | 0.158 | 0.0468 | 0.0488 | 0.0688 | 0.0498 | 0.079
2 | B2 | 0.0714 |  |  | 1.71 | 0.0683 |  |  | 0.0764 | 0.0702 |  | 0.0771 | 0.0742
